Experimental data taken from article PMC11125772, “A Self-Assembling Pfs230D1-Ferritin Nanoparticle Vaccine Has Potent and Durable Malaria Transmission-Reducing Activity” (Vaccines, 2024).

Biological target: the molecule itself
Test: SEC-SAXS; SIBYLS beamline 12.3.1; Shodex KW-804 column for Pfs230D1-ferritin, Shodex KW-802.5 column for Pfs230D1; molecular weight from SAXS (ATSAS)

Row | Protein | stoichiometry N
1 | ferritin (H. pylori ferritin nanoparticle construct without Pfs230D1) (other, linker that contains residues from the N-terminal extension found in bullfrog lower subunit ferritin; Helicobacter pylori ferritin (WP_000949190.1), amino acids 3-167, with I7E and N19Q; Cloned in a modified pHLSec with a secretion signal ahead of the subunit; purified without a tag; Subunit theoretical molecular weight printed as 21.2 kDa; also called ferritin construct; Helicobacter pylori …) GGSGGSGGGGSGESQVRQQFSKDIEKLLNEQVNKEMQSSNLYMSMSSWCYTHSLDGAGLFLFDHAAEEYEHAKKLIIFLNENNVPVQLTSISAPEHKFEGLTQIFQKAYEHEQHISESINNIVDHAIKSKDHATFNFLQWYVAEQHEEEVLFKDILDKIELIGNENHGLYLADQYVKGIAKSRKS | 24
2 | Pfs230D1-ferritin (other, Pfs230 of Plasmodium falciparum 3D7 (XP_001349600.1): a portion of the N-terminal disordered region, amino acids 542-588, and domain 1 (D1), amino acids 589-736; linker that contains residues from the N-terminal extension found in bullfrog lower subunit ferritin; Helicobacter pylori ferritin (WP_000949190.1), amino acids 3-167, with I7E and N19Q; Cloned in a modified pHLSec with a secretion …) SVLQSGALPSVGVDELDKIDLSYETTESGDTAVSEDSYDKYASNNTNKEYVCDFTDQLKPTESGPKVKKCEVKVNEPLIKVKIICPLKGSVEKLYDNIEYVPKKSPYVVLTKEETKLKEKLLSKLIYGLLISPTVNEKENNFKEGVIEFTLPPVVHKATVFYFICDNSKTEDDNKKGNRGIVEVYVEPYGNKINGGGGGSGESQVRQQFSKDIEKLLNEQVNKEMQSSNLYMSMSSWCYTHSLDGAGLFLFDHAAEEYEHAKKLIIFLNENNVPVQLTSISAPEHKFEGLTQIFQKAYEHEQHISESINNIVDHAIKSKDHATFNFLQWYVAEQHEEEVLFKDILDKIELIGNENHGLYLADQYVKGIAKSRKS | 24
